Data from PMC10300371, “Categorization of Escherichia coli outer membrane proteins by dependence on accessory proteins of the β-barrel assembly machinery complex” (The Journal of Biological Chemistry, 2023).

B1: OmpF (natural protein, E. coli, UniProt P02931 23-362, looked up)
chain: AEIYNKDGNKVDLYGKAVGLHYFSKGNGENSYGGNGDMTYARLGFKGETQINSDLTGYGQWEYNFQGNNSEGADAQTGNKTRLAFAGLKYADVGSFDYGRNYGVVYDALGYTDMLPEFGGDTAYSDDFFVGRVGGVATYRNSNFFGLVDGLNFAVQYLGKNERDTARRSNGDGVGGSISYEYEGFGIVGAYGAADRTNLQEAQPLGNGKKAEQWATGLKYDANNIYLAANYGETRNATPITNKFTNTSGFANKTQDVLLVAQYQFDFGLRPSIAYTKSKAKDVEGIGDVDLVNYFEVGATYYFNKNMSTYVDYIINQIDSDNKLGVGSDDTVAVGIVYQF
modifications: 35S-methionine and 35S-cysteine (radiolabel)
notes: Made as a monomer and seen as a trimer after assembly into EMM; also called 35S-labeled OmpF; major porin; source: in vitro translated, rabbit reticulocyte lysate (Promega), 35S-labelled; assembled into EMM
B2: LamB (natural protein, E. coli, UniProt P02943 26-446, looked up)
chain: VDFHGYARSGIGWTGSGGEQQCFQTTGAQSKYRLGNECETYAELKLGQEVWKEGDKSFYFDTNVAYSVAQQNDWEATDPAFREANVQGKNLIEWLPGSTIWAGKRFYQRHDVHMIDFYYWDISGPGAGLENIDVGFGKLSLAATRSSEAGGSSSFASNNIYDYTNETANDVFDVRLAQMEINPGGTLELGVDYGRANLRDNYRLVDGASKDGWLFTAEHTQSVLKGFNKFVVQYATDSMTSQGKGLSQGSGVAFDNEKFAYNINNNGHMLRILDHGAISMGDNWDMMYVGMYQDINWDNDNGTKWWTVGIRPMYKWTPIMSTVMEIGYDNVESQRTGDKNNQYKITLAQQWQAGDSIWSRPAIRVFATYAKWDEKWGYDYTGNADNNANFGKAVPADFNGGSFGRGDSDEWTFGAQMEIWW
modifications: 35S-methionine and 35S-cysteine (radiolabel)
notes: Made as a monomer and seen as a trimer after assembly into EMM; also called 35S-labeled LamB; maltoporin; source: in vitro translated, rabbit reticulocyte lysate (Promega), 35S-labelled; assembled into EMM
B3: OmpC (natural protein, E. coli, UniProt P06996 22-367, looked up)
chain: AEVYNKDGNKLDLYGKVDGLHYFSDNKDVDGDQTYMRLGFKGETQVTDQLTGYGQWEYQIQGNSAENENNSWTRVAFAGLKFQDVGSFDYGRNYGVVYDVTSWTDVLPEFGGDTYGSDNFMQQRGNGFATYRNTDFFGLVDGLNFAVQYQGKNGNPSGEGFTSGVTNNGRDALRQNGDGVGGSITYDYEGFGIGGAISSSKRTDAQNTAAYIGNGDRAETYTGGLKYDANNIYLAAQYTQTYNATRVGSLGWANKAQNFEAVAQYQFDFGLRPSLAYLQSKGKNLGRGYDDEDILKYVDVGATYYFNKNMSTYVDYKINLLDDNQFTRDAGINTDNIVALGLVYQF
modifications: 35S-methionine and 35S-cysteine (radiolabel)
notes: Made as a monomer and seen as a trimer after assembly into EMM; also called 35S-labeled OmpC; major porin; source: in vitro translated, rabbit reticulocyte lysate (Promega), 35S-labelled; assembled into EMM

Target: the molecule itself
Assay: native gel or EMSA; 35S-labelled protein incubated with EMM at 30 °C for 10 to 90 min, EMM solubilised in 1.5% DDM, BN-PAGE and radioimaging; monomer to trimer

Stoichiometry N, 3:
B1
B2
B3
